Results taken from article PMC3985721.

Tests used:
Test in all cases: native MS
[1] = molecular target: human soluble guanylate cyclase β subunit catalytic domain, wild type, βGC(407–626) (UniProt Q02153)
[2] = molecular target: human soluble guanylate cyclase α subunit catalytic domain, truncated αGC(466–662) (human) (UniProt Q02108)
[3] = molecular target: human soluble guanylate cyclase α subunit catalytic domain, αGC(466–690) (human) (UniProt Q02108)

Sequence of UniProt Q02153 (Q02153 whole entry, looked up, the tested form may be a part): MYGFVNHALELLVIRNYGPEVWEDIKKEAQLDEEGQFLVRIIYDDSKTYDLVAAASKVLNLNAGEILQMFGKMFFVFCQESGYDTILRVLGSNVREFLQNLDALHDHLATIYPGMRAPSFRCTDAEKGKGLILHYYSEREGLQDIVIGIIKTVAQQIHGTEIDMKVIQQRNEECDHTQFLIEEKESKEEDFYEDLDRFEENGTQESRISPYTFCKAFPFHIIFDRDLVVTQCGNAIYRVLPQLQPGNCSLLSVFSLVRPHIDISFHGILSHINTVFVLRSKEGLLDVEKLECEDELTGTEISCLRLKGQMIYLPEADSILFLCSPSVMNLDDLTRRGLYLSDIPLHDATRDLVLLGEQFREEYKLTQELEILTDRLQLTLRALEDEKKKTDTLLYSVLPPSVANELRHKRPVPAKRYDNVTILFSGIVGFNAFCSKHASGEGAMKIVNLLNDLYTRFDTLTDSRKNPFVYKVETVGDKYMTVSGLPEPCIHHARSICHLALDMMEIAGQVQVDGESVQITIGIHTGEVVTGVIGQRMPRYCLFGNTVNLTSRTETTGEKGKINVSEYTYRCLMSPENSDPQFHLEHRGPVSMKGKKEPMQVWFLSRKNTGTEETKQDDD

Substance: human soluble guanylate cyclase α subunit catalytic domain, shorter construct αGC661 (residues 466–661)
- relative abundance of the heterodimer (%) [1]: 82.5%

Substance: human soluble guanylate cyclase α subunit catalytic domain, truncated αGC(466–662) (from UniProt Q02108 466-662) (domain or fragment)
- stoichiometry N [2]: 2

Substance: human soluble guanylate cyclase α subunit catalytic domain, αGC(466–690) (from UniProt Q02108 466-690) (domain or fragment)
- stoichiometry N [3]: 2
